# T1: peptide TYSSPEDAIHELFP
# T1 construct: Alanine-scan peptide on a PEPSCAN card; also called replaced amino acid G
# T1 peptide: TYSSPEDAIHELFP
# T2: peptide TYSSPEDGAHELFP
# T2 construct: Alanine-scan peptide on a PEPSCAN card; also called replaced amino acid I
# T2 peptide: TYSSPEDGAHELFP
# T3: peptide TYSSPEDGIHELAP
# T3 construct: Alanine-scan peptide on a PEPSCAN card; also called replaced amino acid F
# T3 peptide: TYSSPEDGIHELAP
# T4: peptide TYSSPEDGIHEAFP
# T4 construct: Alanine-scan peptide on a PEPSCAN card; also called replaced amino acid L
# T4 peptide: TYSSPEDGIHEAFP
# Legend:
# Experiment in all cases: PEPSCAN ELISA, peptide on card, alanine scan
# peptide TYSSPEDAIHELFP = target: T1, peptide TYSSPEDAIHELFP
# peptide TYSSPEDGAHELFP = target: T2, peptide TYSSPEDGAHELFP
# peptide TYSSPEDGIHELAP = target: T3, peptide TYSSPEDGIHELAP
# peptide TYSSPEDGIHEAFP = target: T4, peptide TYSSPEDGIHEAFP
Antibody binding (arbitrary optical density units) (peptide TYSSPEDAIHELFP),Antibody binding (arbitrary optical density units) (peptide TYSSPEDGAHELFP),Antibody binding (arbitrary optical density units) (peptide TYSSPEDGIHELAP),Antibody binding (arbitrary optical density units) (peptide TYSSPEDGIHEAFP),Binder
89 arbitrary optical density units,66 arbitrary optical density units,106 arbitrary optical density units,,"antibody 17G8.72 (antibody, V domains shown) VH: DVQLQESGPDLVKPSQSLSLTCTVTGYSIASGYSWHWIRQFPGNKLEWMGYIHFSGSANYNPSLKSRISITRDTSKNQFFLQLNSVTTEDTATYYCASEARGYFDYWGQGTTLTVSS VL: DVLMTQTPLSLPVSLGDQASISCRSSQSIVRSNGNTYLTWYLQKPGQSPKLLIYKVSNRFSGVPDRFSGSGSGTDFTLKISRVEAEDLGVYFCFQGSHVPPTFGSGTKLEIKR"
122 arbitrary optical density units,91 arbitrary optical density units,249 arbitrary optical density units,,"antibody 27A12.70 (antibody, V domains shown) VH: DVQLQESGPDLVKPSQSLSLTCTVTGYSITSGYSWHWIRQFPGNKLEWMGYIHYSGIANYNPSLKSRISITRDTSKNHFFLQLNSVTTEDTATYYCATEKTGFFDYWGQGTTLTVSS VL: DVVMTQTPLSLPVSLGDQASISCRSSQSLVHSNGNTYLHWYLQKPGQSPKLLIYKVSNRFSGVPDRFSGSGSGTDFTLKISRVEAEDLGVYFCSQSAHVPPTFGGGTKLEIKR"
81 arbitrary optical density units,74 arbitrary optical density units,124 arbitrary optical density units,194 arbitrary optical density units,"antibody 29E7.35 (antibody, V domains shown) VH: AVQLQESGPDLVKPSHSLSLTCTVTGYSITSGYSWHWIRQFPGNKLEWMGYIHYSGSANYNPSLKSRFSITRDTSKNQFFLQLNSVTTEDTATYYCATEKTGFFDYWGQGTTLTVSS VL: DVVMTQTPLSLPVSLGDQASISCRSSQSLVHSNGNTYLHWYLQKPGQSPKLLIYKVSNRFSGVPDRFSGSGSGTDFTLKISRVEAEDLGVYFCSQSAHVPPTFGGGTKLEIKR"

# Source: patent US20180264108A1 (ENCARE BIOTECH B V, published 2018)
